± gives the standard deviation.
Test: protein stability index of a GFP-peptide fusion (GPS, HEK-293T) (PSI 1-6); higher = more stable
Conditions: c terminus: a fixed tail appended
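Further: 24-mer peptide tiles fused after GFP, lentivirally expressed, FACS-sorted into six equal bins by GFP/DsRed ratio, decoded by Illumina sequencing, PSI is the read-weighted mean bin number.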

Row | Sequence | protein stability index (treatment: DMSO) | protein stability index (treatment: MLN4924 1 uM, 8 h)
1 | WRERAVEKRERALEEVERAILEMK [ZBED2] | 4.2 ± 0.14 | 4.29 ± 0.44
2 | WNNVGLLGGRALMNCLPSNRTLWR [LRRC45] | 2.23 ± 0.31 | 2.24 ± 0.45
3 | KQLLDSKIGFEIGIENEEDTSKQK [ZNF449] | 5.3 ± 0.27 | 5.26 ± 0.3
4 | LDLFAMKPPETSVPVVTPTASTAP [SNAP91] | 4.25 ± 0.28 | 4.48 ± 0.22
5 | AAGSPRSPGPLPGARGLHLPDAGS [ISL2] | 4.6 ± 0.35 | 4.72 ± 0.16
6 | EVEWTEDLALDLGPQSRELTLKVL [C2CD2L] | 3.44 ± 0.19 | 3.6 ± 0.36
7 | GHSQPDGAYSSASSFSRPLGYPYV [DLX1] | 3.35 ± 0.14 | 3.17 ± 0.29
8 | WGRLLEQVGTMALWASQREKEVLR [ZBED2] | 2.18 ± 0.16 | 2.36 ± 0.23
9 | IELQGVPNDEVHPLLGVKGDGKSK [RBBP5] | 5.14 ± 0.19 | 4.96 ± 0.21
10 | PTPANEERRGGLPPLPLHPGGDQG [WAS] | 5.38 ± 0.22 | 5.39 ± 0.065
11 | KKAFLNQAQIELRLLELMNQHDTE [DYRK1B] | 3.05 ± 0.3 | 3.35 ± 0.14
12 | DTQVNPVGSVSVDCGPSRADRCSP [FBXO34] | 5.09 ± 0.32 | 5.15 ± 0.28
13 | ERGTPGLPGPKGDDGKLGATGPMG [SCARA5] | 4.92 ± 0.34 | 4.95 ± 0.15
14 | EVLIGAGYSTPADIWSTACMAFEL [SRPK2] | 3.14 ± 1.2 | 2.61 ± 0.88
15 | SCEVSEENCERREAFWAEWKDLTL [TCAP] | 4.16 ± 0.2 | 4.21 ± 0.39
16 | RENKRMADSLASKVTRLKSLALDI [BET1L] | 2.63 ± 0.12 | 2.7 ± 0.31
17 | ENLDNDTETDSLVSAQRERPRRRD [DVL3] | 5.51 ± 0.2 | 5.41 ± 0.29
18 | PGTPPSYSSRTPGTPGTPSYPRTP [MAP2] | 4.72 ± 0.39 | 4.55 ± 0.34

Row | Sequence | protein stability index (treatment: DMSO) | protein stability index (treatment: MLN4924 1 uM, 8 h)
19 | VLALADEAGYYFFNGNYKVDSPKN [ADAMTSL2] | 2.7 ± 0.23 | 2.86 ± 0.3
20 | FHAYYYCFITLTTIGFGDYVALQT [KCNK9] | 3.27 ± 0.29 | 3.34 ± 0.36
21 | ISESMAACTRSLLGDPPPLLTLPR [HDAC6] | 2.98 ± 0.14 | 3.29 ± 0.41
22 | ASSLPAEVHSLTLSPPEQAAQPMQ [PLAGL1] | 5.07 ± 0.12 | 4.89 ± 0.26
23 | EISKDNSCKENCTCSSCLLRAPTI [EDARADD] | 4.67 ± 0.29 | 4.86 ± 0.14
24 | LRELCRLWLRPETHTKEQILELVV [ZNF24] | 2.44 ± 0.21 | 2.11 ± 0.34
25 | AGPDSWGSDAEQSTSGQPYPTSDQ [LCOR] | 5.48 ± 0.23 | 5.4 ± 0.13
26 | DCSDILRLIKELAKYEYMEEQVIL [SAT1] | 1.95 ± 0.51 | 2.23 ± 0.1
27 | PAFIIVKLSPLRDRLVVTECQLTH [ZSWIM9] | 3.33 ± 0.57 | 3.02 ± 0.54
28 | GEQVGRGPGFHAGTSALWRHLRSA [ZBED3] | 3.35 ± 0.13 | 3.27 ± 0.27
29 | AKRCTVIGGSGFLGQHMVEQLLAR [NSDHL] | 2.1 ± 0.2 | 2.21 ± 0.41
30 | RDSHGKGIPNAIISVEGINHDIRT [CPXM2] | 4.2 ± 0.21 | 4.17 ± 0.27
31 | SDSDSELSSSEGLEPGSADPLANG [PSD2] | 5.5 ± 0.35 | 5.59 ± 0.14
32 | KLMKNIRFPLMTPQELINYVQTVD [KLHL13] | 2.87 ± 0.18 | 2.82 ± 0.19
33 | EDQYEENSHLTSVPHWINSNTLGF [ETS2] | 3.2 ± 0.34 | 3.13 ± 0.3
34 | LGWGPTALRDVPFSALYWFNYELV [SLC25A39] | 2.9 ± 0.54 | 2.61 ± 0.41
35 | DTNLGRLEDGQTPLHLSALRDDVL [ASB7] | 4.59 ± 0.1 | 4.56 ± 0.21
36 | KRCIVILREIPETTPIEEVKGLFK [LARP4] | 2.23 ± 0.46 | 1.93 ± 0.47
